Measured values taken from the supplement of paper PMC9112550, “Optimization of the antimicrobial peptide Bac7 by deep mutational scanning” (BMC Biology, 2022).

Tested on: Escherichia coli TOP10
Experiment: shrunken log2 fold change of peptide-encoding DNA abundance (4.5 h post-induction vs induction); higher = less antimicrobial activity (less host growth inhibition)
Settings: time post-induction: 4.5 h; library: site-saturation at positions 5, 18, 19, 20
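Also: peptides expressed intracellularly from a pBAD plasmid library in pooled LB shake-flask culture, induced with 0.3% L-arabinose, DNA abundance read by NGS, three biological replicates, DESeq2 with apeglm shrinkage.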

RRIRMRPPRLPRPRPRPDGEPRP
shrunken log2 fold change: 0.857

RRIRLRPPRLPRPRPRPGEFPRP
shrunken log2 fold change: 2.05

RRIRERPPRLPRPRPRPEHTPRP
shrunken log2 fold change: -0.154

RRIRDRPPRLPRPRPRPWHKPRP
shrunken log2 fold change: -0.11

RRIRWRPPRLPRPRPRPTTHPRP
shrunken log2 fold change: 0.163

RRIRNRPPRLPRPRPRPHVSPRP
shrunken log2 fold change: -0.00166

RRIRFRPPRLPRPRPRPRAPPRP
shrunken log2 fold change: 0.821

RRIRSRPPRLPRPRPRPKIKPRP
shrunken log2 fold change: -0.346

RRIRHRPPRLPRPRPRPYIQPRP
shrunken log2 fold change: -0.73

RRIRKRPPRLPRPRPRPPIHPRP
shrunken log2 fold change: 0.327

RRIRPRPPRLPRPRPRPEPQPRP
shrunken log2 fold change: 0.268

RRIRPRPPRLPRPRPRPLEWPRP
shrunken log2 fold change: -0.00787

RRIRPRPPRLPRPRPRPGAQPRP
shrunken log2 fold change: 0.198

RRIRNRPPRLPRPRPRPAHHPRP
shrunken log2 fold change: -0.0626

RRIRTRPPRLPRPRPRPGWLPRP
shrunken log2 fold change: 0.445

RRIRSRPPRLPRPRPRPPISPRP
shrunken log2 fold change: -0.0261

RRIRKRPPRLPRPRPRPTWCPRP
shrunken log2 fold change: 0.263

RRIRDRPPRLPRPRPRPGDCPRP
shrunken log2 fold change: 0.0646

RRIRCRPPRLPRPRPRPNASPRP
shrunken log2 fold change: 0.0178

RRIRSRPPRLPRPRPRPYQWPRP
shrunken log2 fold change: 0.0794

RRIRIRPPRLPRPRPRPTHHPRP
shrunken log2 fold change: 0.155

RRIRGRPPRLPRPRPRPWPIPRP
shrunken log2 fold change: -0.095

RRIRRRPPRLPRPRPRPPVTPRP
shrunken log2 fold change: 0.538

RRIRVRPPRLPRPRPRPNKVPRP
shrunken log2 fold change: -0.271

RRIRKRPPRLPRPRPRPIWQPRP
shrunken log2 fold change: 0.163

RRIRPRPPRLPRPRPRPNKKPRP
shrunken log2 fold change: -0.238

RRIRNRPPRLPRPRPRPLTDPRP
shrunken log2 fold change: -0.193

RRIRHRPPRLPRPRPRPSLQPRP
shrunken log2 fold change: -0.0974

RRIRKRPPRLPRPRPRPMLAPRP
shrunken log2 fold change: 0.843

RRIRYRPPRLPRPRPRPWQSPRP
shrunken log2 fold change: -0.121

RRIRMRPPRLPRPRPRPDNDPRP
shrunken log2 fold change: 1.41

RRIRMRPPRLPRPRPRPAFWPRP
shrunken log2 fold change: 0.963

RRIRKRPPRLPRPRPRPKDNPRP
shrunken log2 fold change: 0.297

RRIRNRPPRLPRPRPRPGTVPRP
shrunken log2 fold change: -0.31

RRIRWRPPRLPRPRPRPIKCPRP
shrunken log2 fold change: -0.0271

RRIRMRPPRLPRPRPRPSEWPRP
shrunken log2 fold change: 0.0913

RRIRSRPPRLPRPRPRPSFRPRP
shrunken log2 fold change: -0.357

RRIRDRPPRLPRPRPRPEPQPRP
shrunken log2 fold change: 0.0781

RRIRQRPPRLPRPRPRPTRFPRP
shrunken log2 fold change: 0.04

RRIRYRPPRLPRPRPRPKRMPRP
shrunken log2 fold change: -0.207

RRIRNRPPRLPRPRPRPFTYPRP
shrunken log2 fold change: -0.0143

RRIRARPPRLPRPRPRPDLSPRP
shrunken log2 fold change: 0.209

RRIRGRPPRLPRPRPRPKRMPRP
shrunken log2 fold change: 0.675

RRIRARPPRLPRPRPRPWVMPRP
shrunken log2 fold change: -0.156

RRIRNRPPRLPRPRPRPKYMPRP
shrunken log2 fold change: -0.854

RRIRWRPPRLPRPRPRPFHFPRP
shrunken log2 fold change: -0.451

RRIRTRPPRLPRPRPRPGYTPRP
shrunken log2 fold change: 0.0635

RRIRLRPPRLPRPRPRPAEIPRP
shrunken log2 fold change: -0.219

RRIRIRPPRLPRPRPRPRRHPRP
shrunken log2 fold change: -0.147

RRIRYRPPRLPRPRPRPRTAPRP
shrunken log2 fold change: -0.0512

RRIRNRPPRLPRPRPRPMDYPRP
shrunken log2 fold change: 0.0678

RRIRVRPPRLPRPRPRPSGVPRP
shrunken log2 fold change: 0.0069

RRIRIRPPRLPRPRPRPFVGPRP
shrunken log2 fold change: -0.134

RRIRSRPPRLPRPRPRPRNWPRP
shrunken log2 fold change: 0.318

RRIRRRPPRLPRPRPRPGVNPRP
shrunken log2 fold change: -0.271

RRIRTRPPRLPRPRPRPWYRPRP
shrunken log2 fold change: -0.23

RRIRKRPPRLPRPRPRPLLGPRP
shrunken log2 fold change: 0.628

RRIRVRPPRLPRPRPRPKYQPRP
shrunken log2 fold change: -0.876

RRIRDRPPRLPRPRPRPAWDPRP
shrunken log2 fold change: 0.4

RRIRKRPPRLPRPRPRPVYYPRP
shrunken log2 fold change: -0.094

RRIRFRPPRLPRPRPRPMKTPRP
shrunken log2 fold change: -0.0807

RRIRQRPPRLPRPRPRPMHQPRP
shrunken log2 fold change: -0.195

RRIRRRPPRLPRPRPRPDNMPRP
shrunken log2 fold change: -0.259

RRIRWRPPRLPRPRPRPRVKPRP
shrunken log2 fold change: 0.13

RRIRARPPRLPRPRPRPMHYPRP
shrunken log2 fold change: -0.0399

RRIRPRPPRLPRPRPRPRVIPRP
shrunken log2 fold change: 0.033

RRIRQRPPRLPRPRPRPWIWPRP
shrunken log2 fold change: 0.231

RRIRPRPPRLPRPRPRPFDVPRP
shrunken log2 fold change: 0.0778

RRIRKRPPRLPRPRPRPMHVPRP
shrunken log2 fold change: -0.0434

RRIRARPPRLPRPRPRPAKCPRP
shrunken log2 fold change: -6.11e-05

RRIRWRPPRLPRPRPRPIIYPRP
shrunken log2 fold change: -0.327

RRIRNRPPRLPRPRPRPKTMPRP
shrunken log2 fold change: 0.177

RRIRMRPPRLPRPRPRPVVYPRP
shrunken log2 fold change: -0.0377

RRIRYRPPRLPRPRPRPCYHPRP
shrunken log2 fold change: -0.289

RRIRTRPPRLPRPRPRPQIHPRP
shrunken log2 fold change: -0.15

RRIRDRPPRLPRPRPRPDNMPRP
shrunken log2 fold change: 0.0341

RRIRERPPRLPRPRPRPDTPPRP
shrunken log2 fold change: -0.562

RRIRDRPPRLPRPRPRPMCQPRP
shrunken log2 fold change: 0.0359

RRIRFRPPRLPRPRPRPLYFPRP
shrunken log2 fold change: -0.72

RRIRVRPPRLPRPRPRPAETPRP
shrunken log2 fold change: 0.344

RRIRERPPRLPRPRPRPTRFPRP
shrunken log2 fold change: 0.169

RRIRIRPPRLPRPRPRPRHKPRP
shrunken log2 fold change: -0.704

RRIRERPPRLPRPRPRPIVQPRP
shrunken log2 fold change: -0.311

RRIRFRPPRLPRPRPRPWAYPRP
shrunken log2 fold change: -0.201

RRIRQRPPRLPRPRPRPCLLPRP
shrunken log2 fold change: -2.33

RRIRWRPPRLPRPRPRPQTAPRP
shrunken log2 fold change: 0.282

RRIRGRPPRLPRPRPRPCHTPRP
shrunken log2 fold change: -0.0963

RRIRGRPPRLPRPRPRPGENPRP
shrunken log2 fold change: -0.0369

RRIRPRPPRLPRPRPRPCINPRP
shrunken log2 fold change: -0.726

RRIRKRPPRLPRPRPRPQCDPRP
shrunken log2 fold change: 0.279

RRIRMRPPRLPRPRPRPMTVPRP
shrunken log2 fold change: 0.0944
